# Experimental data reported in patent US20210380978.
# System: HNRNPH1 isoform A (Homo sapiens)
# Assay: MST
# Conditions: 50 mM Tris pH 8.0, 300 mM KCl, 0.02% NP-40, 10% glycerol, 0.5 mg/ml heparin, 22 C; 20 nM RNA
substance,measurement,value
INCA1 major eCLIP peak 50-nt RNA oligo,Kd,762 nM
